Key:
split reporter = target: the molecule itself; assay: split reporter
crystal structure = target: the molecule itself; assay: crystal structure

B1: CXE15 C14D fused to split YFP (enzyme, Arabidopsis thaliana, UniProt Q9FG13 1-329, looked up)
chain: MGSLGEEPQVAEDDMGLLQLLSNGTVLRSESIDLITQQIPFKNNQTVLFKDSIYHKPNNLHLRLYKPISASNRTALPVVVFFHGGGFCFGSRSWPHFHNFCLTLASSLNALVVSPDYRLAPEHRLPAAFEDAEAVLTWLWDQAVSDGVNHWFEDGTDVDFDRVFVVGDSSGGNIAHQLAVRFGSGSIELTPVRVRGYVLMGPFFGGEERTNSENGPSEALLSLDLLDKFWRLSLPNGATRDHHMANPFGPTSPTLESISLEPMLVIVGGSELLRDRAKEYAYKLKKMGGKRVDYIEFENKEHGFYSNYPSSEAAEQVLRIIGDFMNNLS
B1 was tested, and the “fold reduction of BiFC fluorescence against wild-type CXE15” value (split reporter) was greater than 2 fold.

B2: CXE15 E271Q mutant (enzyme, Arabidopsis thaliana, UniProt Q9FG13 1-329, looked up)
chain: MGSLGEEPQVAEDCMGLLQLLSNGTVLRSESIDLITQQIPFKNNQTVLFKDSIYHKPNNLHLRLYKPISASNRTALPVVVFFHGGGFCFGSRSWPHFHNFCLTLASSLNALVVSPDYRLAPEHRLPAAFEDAEAVLTWLWDQAVSDGVNHWFEDGTDVDFDRVFVVGDSSGGNIAHQLAVRFGSGSIELTPVRVRGYVLMGPFFGGEERTNSENGPSEALLSLDLLDKFWRLSLPNGATRDHHMANPFGPTSPTLESISLEPMLVIVGGSQLLRDRAKEYAYKLKKMGGKRVDYIEFENKEHGFYSNYPSSEAAEQVLRIIGDFMNNLS
modifications: disulphide bond between the two Cys14 residues in the crystal
B2: binds (crystal structure).

From article PMC12638876 (Nature Communications, 2025)
